Experimental data published in the supplement of paper PMC10567573.

B1: ZBED1 (parent)
chain: EQVFSLGDGVSGGFFGIRDSSFL

Variants of: B1
Experiment: protein stability index of a GFP-peptide fusion (GPS, HEK-293T) (PSI 1-6); higher = more stable
Conditions: c terminus: native
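Also: lentivirally expressed fusions sorted by FACS into six bins by GFP to DsRed ratio, PSI derived from sequencing read proportions per bin multiplied by bin number.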

Protein stability index of substitutions, site by site:
F4: Q 4.12, R 4.16, S 4.29, T 3.75, V 3.85, W 3.08, Y 3.47
S5: A 2.98, C 2.6, D 3.74, E 3.81, F 1.75, G 3.27, H 3.36, I 2.16, K 3.31, L 2.24, M 2.67, N 3.96, P 3.2, Q 3.34, R 3.29, T 3.51, V 2.44, W 1.83, Y 2.63
L6: A 3.92, C 3.76, D 3.73, E 4.69, F 3.22, G 4.31, H 3.97, I 3.14, K 3.86, M 3.2, N 3.4, P 3.96, Q 3.5, R 4.26, S 4.12, T 3.27, V 3.08, W 3.01, Y 3.42
G7: A 2.98, C 2.61, D 4.29, E 3.84, F 1.99, H 3.34, I 1.9, K 3.16, L 2.18, M 2.52, N 3.28, P 3.51, Q 3.46, R 2.94, S 2.94, T 3.23, V 2.19, W 1.7, Y 2.34
D8: A 2.7, C 2.07, E 3.04, F 1.61, G 3.24, H 2.73, I 1.41, K 2.69, L 1.99, M 1.47, N 2.88, P 2.73, Q 2.73, R 2.61, S 3.22, T 2.91, V 1.57, W 1.91, Y 2.01
G9: A 3.15, C 2.32, D 4, E 3.25, F 2.55, H 3.48, I 2.47, K 2.99, L 2.01, M 2.9, N 3.46, P 3.29, Q 3.16, R 2.86, S 3.27, T 3.1, V 3.09, W 1.51, Y 2.51
V10: A 3.87, C 3.35, D 3.78, E 3.62, F 2.75, G 3.89, H 3.55, I 2.92, K 3.6, L 3, M 2.57, N 3.8, P 3.86, Q 3.92, R 4.32, S 4.03, T 3.78, W 2.61, Y 3.38
S11: A 3.73, C 2.48, D 4.01, E 4.02, F 2.35, G 3.26, H 3.15, I 2, K 3.11, L 3.09, M 2.81, N 3.63, P 2.76, Q 3.05, R 2.89, T 3.18, V 2.9, W 2.39, Y 2.17
G12: A 3.41, C 2.49, D 4.06, E 4.06, F 2.01, H 3.01, I 1.42, K 3.52, L 2.3, M 2.88, N 3.6, P 3.5, Q 3.52, R 2.92, S 3.55, T 3.28, V 2.45, W 1.72, Y 2.05
G13: A 3.28, C 3.08, D 3.73, E 4.08, F 1.98, H 3.41, I 1.99, K 3.08
